Source: the supplement of paper PMC11246515
± gives the standard deviation of the averaged measurements.

Test: total protein half-life in vivo (active degradation + dilution); higher = more stable protein
[1] = E. coli NCM3722 delta-hslV, growth: N-lim chemostat, doubling time 6 h
[2] = E. coli NCM3722 delta-lon, growth: N-lim chemostat, doubling time 6 h
[3] = E. coli NCM3722 delta-smpB, growth: N-lim chemostat, doubling time 6 h
[4] = wild type E. coli NCM3722, growth: C-lim chemostat, doubling time 6 h
[5] = wild type E. coli NCM3722, growth: C-lim chemostat, doubling time 12 h
[6] = wild type E. coli NCM3722, growth: N-lim chemostat, doubling time 6 h
[7] = wild type E. coli NCM3722, growth: P-lim chemostat, doubling time 6 h
[8] = wild type E. coli NCM3722, growth: P-lim chemostat, doubling time 12 h
[9] = E. coli NCM3722 delta-clpP delta-lon delta-hslV, growth: N-lim chemostat, doubling time 6 h
[10] = E. coli NCM3722 delta-clpP, growth: N-lim chemostat, doubling time 6 h
[11] = wild type E. coli NCM3722, growth: C-lim chemostat, doubling time 3 h
[12] = wild type E. coli NCM3722, growth: N-lim chemostat, doubling time 12 h

| Sequence | total protein half-life in vivo [1] [h] | total protein half-life in vivo [2] [h] | total protein half-life in vivo [3] [h] | total protein half-life in vivo [4] [h] | total protein half-life in vivo [5] [h] | total protein half-life in vivo [6] [h] | total protein half-life in vivo [7] [h] | total protein half-life in vivo [8] [h] | total protein half-life in vivo [9] [h] | total protein half-life in vivo [10] [h] | total protein half-life in vivo [11] [h] | total protein half-life in vivo [12] [h] |
| --- | --- | --- | --- | --- | --- | --- | --- | --- | --- | --- | --- | --- |
| MDALSRLLMLNAPQGTIDKNCVLGSDWQLPHGAGELSVIRWHALTQGAAKLEMPTGEIFTLRPGNVVLLPQNSAHRLSHVDNESTCIVCGTLRLQHSARYFLTSLPETLFLAPVNHSVEYNWLREAIPFLQQESRSAMPGVDALCSQICATFFTLAVREWIAQVNTEKNILSLLLHPRLGAVIQQMLEMPGHAWTVESLASIAHMSRASFAQLFRDVSGTTPLAVLTKLRLQIAAQMFSRETLPVVVIAESVGYASESSFHKAFVREFGCTPGEYRERVRQLAP | 6.33 | 6.04 | 5.156 ± 0.014 | 5.12 ± 3.4 | 11.8 ± 2.5 | 5.92 ± 0.51 | 5.4 ± 0.16 | 12.4 ± 1.3 |  |  |  |  |
| MSNTYQKRKASKEYGLYNQCKKLNDDELFRLLDDHNSLKRISSARVLQLRGGQDAVRLAIEFCSDKNYIRRDIGAFILGQIKICKKCEDNVFNILNNMALNDKSACVRATAIESTAQRCKKNPIYSPKIVEQSQITAFDKSTNVRRATAFAISVINDKATIPLLINLLKDPNGDVRNWAAFAININKYDNSDIRDCFVEMLQDKNEEVRIEAIIGLSYRKDKRVLSVLCDELKKNTVYDDIIEAAGELGDKTLLPVLDTMLYKFDDNEIITSAIDKLKRS [P0ADK6] | 2.92 ± 1.5 | 2.68 ± 0.43 | 1.77 ± 0.26 | 3.9 ± 0.61 | 5.23 ± 0.093 | 2.17 ± 0.22 | 2.65 ± 0.32 | 4.89 ± 1 | 5.51 ± 0.25 | 4.904 ± 0.018 | 2.016 ± 0.02 | 2.62 ± 0.074 |
| MAMPLSLLIGLRFSRGRRRGGMVSLISVISTIGIALGVAVLIVGLSAMNGFERELNNRILAVVPHGEIEAVDQPWTNWQEALDHVQKVPGIAAAAPYINFTGLVESGANLRAIQVKGVNPQQEQRLSALPSFVQGDAWRNFKAGEQQIIIGKGVADALKVKQGDWVSIMIPNSNPEHKLMQPKRVRLHVAGILQLSGQLDHSFAMIPLADAQQYLDMGSSVSGIALKMTDVFNANKLVRDAGEVTNSYVYIKSWIGTYGYMYRDIQMIRAIMYLAMVLVIGVACFNIVSTLVMAVKDKSGDIAVLRTLGAKDGLIRAIFVWYGLLAGLFGSLCGVIIGVVVSLQLTPIIEWIEKLIGHQFLSSDIYFIDFLPSELHWLDVFYVLVTALLLSLLASWYPARRASNIDPARVLSGQ | 5.66 ± 0.51 | 5.4 ± 0.27 | 5.77 ± 0.5 | 5.759 ± 0.033 |  | 5.94 ± 0.43 | 6.023 ± 0.042 | 12.2 ± 0.26 | 5.8 ± 0.74 | 6.23 ± 0.16 | 3.32 ± 0.27 | 13.9 ± 2.2 |
| MSSRNNPARVAIVMGSKSDWATMQFAAEIFEILNVPHHVEVVSAHRTPDKLFSFAESAEENGYQVIIAGAGGAAHLPGMIAAKTLVPVLGVPVQSAALSGVDSLYSIVQMPRGIPVGTLAIGKAGAANAALLAAQILATHDKELHQRLNDWRKAQTDEVLENPDPRGAA [P0AG18] | 4.8 ± 0.085 | 4.93 ± 0.088 | 4.71 ± 0.3 | 5.47 ± 0.46 | 9.5 ± 0.76 | 4.67 ± 0.13 | 5.68 ± 0.13 | 10.9 ± 0.31 | 5.15 ± 0.26 | 4.94 ± 0.41 | 2.77 ± 0.034 | 6.68 ± 0.46 |
| MATPYISMAGIGKSFGPVHALKSVNLTVYPGEIHALLGENGAGKSTLMKVLSGIHEPTKGTITINNISYNKLDHKLAAQLGIGIIYQELSVIDELTVLENLYIGRHLTKKICGVNIIDWREMRVRAAMMLLRVGLKVDLDEKVANLSISHKQMLEIAKTLMLDAKVIIMDEPTSSLTNKEVDYLFLIMNQLRKEGTAIVYISHKLAEIRRICDRYTVMKDGSSVCSGIVSDVSNDDIVRLMVGRELQNRFNAMKENVSNLAHETVFEVRNVTSRDRKKVRDISFSVCRGEILGFAGLVGSGRTELMNCLFGVDKRAGGEIRLNGKDISPRSPLDAVKKGMAYITESRRDNGFFPNFSIAQNMAISRSLKDGGYKGAMGLFHEVDEQRTAENQRELLALKCHSVNQNITELSGGNQQKVLISKWLCCCPEVIIFDEPTRGIDVGAKAEIYKVMRQLADDGKVILMVSSELPEIITVCDRIAVFCEGRLTQILTNRDDMSEEEIMAWALPQE |  |  | > 8 | 5.265 ± 0.0056 |  | 6.14 |  | 10.6 |  |  | 2.84 ± 0.095 |  |
| MSVIAQAGAKGRQLHKFGGSSLADVKCYLRVAGIMAEYSQPDDMMVVSAAGSTTNQLINWLKLSQTDRLSAHQVQQTLRRYQCDLISGLLPAEEADSLISAFVSDLERLAALLDSGINDAVYAEVVGHGEVWSARLMSAVLNQQGLPAAWLDAREFLRAERAAQPQVDEGLSYPLLQQLLVQHPGKRLVVTGFISRNNAGETVLLGRNGSDYSATQIGALAGVSRVTIWSDVAGVYSADPRKVKDACLLPLLRLDEASELARLAAPVLHARTLQPVSGSEIDLQLRCSYTPDQGSTRIERVLASGTGARIVTSHDDVCLIEFQVPASQDFKLAHKEIDQILKRAQVRPLAVGVHNDRQLLQFCYTSEVADSALKILDEAGLPGELRLRQGLALVAMVGAGVTRNPLHCHRFWQQLKGQPVEFTWQSDDGISLVAVLRTGPTESLIQGLHQSVFRAEKRIGLVLFGKGNIGSRWLELFAREQSTLSARTGFEFVLAGVVDSRRSLLSYDGLDASRALAFFNDEAVEQDEESLFLWMRAHPYDDLVVLDVTASQQLADQYLDFASHGFHVISANKLAGASDSNKYRQIHDAFEKTGRHWLYNATVGAGLPINHTVRDLIDSGDTILSISGIFSGTLSWLFLQFDGSVPFTELVDQAWQQGLTEPDPRDDLSGKDVMRKLVILAREAGYNIEPDQVRVESLVPAHCEGGSIDHFFENGDELNEQMVQRLEAAREMGLVLRYVARFDANGKARVGVEAVREDHPLASLLPCDNVFAIESRWYRDNPLVIRGPGAGRDVTAGAIQSDINRLAQLL | 2.95 ± 0.31 | 3.25 ± 0.14 | 3.01 ± 0.38 | 4.89 ± 0.2 | 9.3 ± 0.67 | 2.79 ± 0.053 | 6 ± 0.21 | 11.1 ± 0.36 | 3.69 ± 0.6 | 2.74 ± 0.12 | 3.08 ± 0.22 | 4.57 ± 0.19 |
| MNTLPEHSCDVLIIGSGAAGLSLALRLADQHQVIVLSKGPVTEGSTFYAQGGIAAVFDETDSIDSHVEDTLIAGAGICDRHAVEFVASNARSCVQWLIDQGVLFDTHIQPNGEESYHLTREGGHSHRRILHAADATGREVETTLVSKALNHPNIRVLERSNAVDLIVSDKIGLPGTRRVVGAWVWNRNKETVETCHAKAVVLATGGASKVYQYTTNPDISSGDGIAMAWRAGCRVANLEFNQFHPTALYHPQARNFLLTEALRGEGAYLKRPDGTRFMPDFDERGELAPRDIVARAIDHEMKRLGADCMFLDISHKPADFIRQHFPMIYEKLLGLGIDLTQEPVPIVPAAHYTCGGVMVDDHGRTDVEGLYAIGEVSYTGLHGANRMASNSLLECLVYGWSAAEDITRRMPYAHDISTLPPWDESRVENPDERVVIQHNWHELRLFMWDYVGIVRTTKRLERALRRITMLQQEIDEYYAHFRVSNNLLELRNLVQVAELIVRCAMMRKESRGLHFTLDYPELLTHSGPSILSPGNHYINR | 2.28 ± 0.26 | 4.14 ± 1.7 | 2.39 ± 0.22 | 4.41 ± 0.59 | 8.41 ± 0.56 | 2.58 ± 0.22 | 4.69 ± 0.27 | 8.21 ± 0.71 | 4 ± 0.14 | 2.44 ± 0.11 | 2.68 ± 0.063 | 3.51 ± 0.061 |
| MRMNMSDFATFFAVARNQSFRAAGDELGLSSSAISHSIKTLEQRLKIRLFNRTTRSVSLTEAGSNLYERLRPAFDEIQIMLDEMNDFRLTPTGTLKINAARVAARIFLMSLLVGFTREYPDIKVELTTDDSLVDIVQQGFDAGVRLSCIVEKDMISVAIGPPVKLCVAATPEYFARYGKPRHPHDLLNHQCVVFRYPSGKPFHWQFAKELEIAVAGNIILDDVDAELEAVLMGAGIGYLLYEQIKEYLDTGRLECVLEDWSTERPGFQIYYPNRQYMSCGLRAFLDYVKTGQICQSQRHRPQ |  |  |  |  |  |  |  |  | 5.54 ± 0.06 |  |  |  |
| MIISEMQRKLATWAATDPSLRIQRLLRLITQPEWLAEAARITLSSKGAHTPGVDGVNKTMLQARLAVELQILRDELLSGHYQPLPARRVYIPKSNGKLRPLGIPALRDRIVQRAMLMAMEPIWESDFHTLSYGFRPERSVHHAIRTVKLQLTDCGETRGRWVIEGDLSSYFDTVHHRLLMKAVRRRISDARFMTLLWKTIKAGHIDVGLFRAASEGVPQGGVISPLLSNIMLNEFDQYLHERYLSGKARKDRWYWNNSIQRGRSTAVRENWQWKPAVAYCRYADDFVLIVKGTKAQVEAIREECRGVLEGSLKLRLNMDKTKIPHVNDGFIFLGHRLIRKRSRYGEMRVVSTIPQEKARNFAASLTALLWKVRISGEILLG |  |  |  |  |  |  |  |  | 4.72 ± 0.55 |  |  |  |
| MTILSLSRFMLAGVLLASFNASAIPGFWQQGYGQGNTEYSVTEASGKTFTINCTGNPDQNGFYQHSVFLTLADDKMVSSHDDDTTITVVMDHQQYIIPSSLGWRNGDNAWFDFISNISEAGQFDVYVNDHKAGTFTADRKNAEKVLSTLGDCSND |  |  |  |  | 5.33 |  |  |  |  |  |  |  |
| MSGLRPALSTFIFLLLITGGVYPLLTTVLGQWWFPWQANGSLIREGDTVRGSALIGQNFTGNGYFHGRPSATAEMPYNPQASGGSNLAVSNPELDKLIAARVAALRAANPDASASVPVELVTASASGLDNNITPQAAAWQIPRVAKARNLSVEQLTQLIAKYSQQPLVKYIGQPVVNIVELNLALDKLDE | 4.28 |  |  |  |  |  |  | 11.7 ± 2.1 |  |  |  |  |
| MSKSDVFHLGLTKNDLQGATLAIVPGDPDRVEKIAALMDKPVKLASHREFTTWRAELDGKPVIVCSTGIGGPSTSIAVEELAQLGIRTFLRIGTTGAIQPHINVGDVLVTTASVRLDGASLHFAPLEFPAVADFECTTALVEAAKSIGATTHVGVTASSDTFYPGQERYDTYSGRVVRHFKGSMEEWQAMGVMNYEMESATLLTMCASQGLRAGMVAGVIVNRTQQEIPNAETMKQTESHAVKIVVEAARRLL | 7.09 ± 0.43 | 5.95 ± 0.47 | 5.823 ± 0.029 | 6.246 ± 0.033 | 13.7 ± 2.1 | 5.75 ± 0.092 | 5.99 ± 0.2 | 12.4 ± 0.29 | 6.83 ± 0.33 | 6.27 ± 0.78 | 3.23 ± 0.11 | 10.7 ± 0.74 |
| MSIRFARKADCAAIAEIYNHAVLYTAAIWNDQTVDADNRIAWFEARTLAGYPVLVSEENGVVTGYASFGDWRSFDGFRHTVEHSVYVHPDHQGKGLGRKLLSRLIDEARDCGKHVMVAGIESQNQASLHLHQSLGFVVTAQMPQVGTKFGRWLDLTFMQLQLDERTEPDAIG | 4.9 ± 0.08 | 5.17 ± 0.18 | 4.66 ± 0.33 | 5.77 ± 0.34 | 10.14 ± 0.042 | 4.93 ± 0.44 | 5.912 ± 0.025 | 12 ± 0.29 | 5.23 ± 0.39 | 4.6 ± 0.25 | 2.77 ± 0.072 | 9.49 |
| MATTHLDVCAVVPAAGFGRRMQTECPKQYLSIGNQTILEHSVHALLAHPRVKRVVIAISPGDSRFAQLPLANHPQITVVDGGDERADSVLAGLKAAGDAQWVLVHDAARPCLHQDDLARLLALSETSRTGGILAAPVRDTMKRAEPGKNAIAHTVDRNGLWHALTPQFFPRELLHDCLTRALNEGATITDEASALEYCGFHPQLVEGRADNIKVTRPEDLALAEFYLTRTIHQENT | 5.2 ± 1.2 | 4.6 ± 2.6 | 4.66 ± 0.47 | 6.7 ± 1.2 | 10.6 ± 1.2 | 5.66 ± 1.1 |  | 11.96 ± 0.058 | 4.65 ± 0.39 | 5.096 ± 0.047 | 3.29 ± 0.43 | 8.34 ± 2 |
